Test results taken from patent publication US20230052369A1 (Zymeworks, published 2023).
Where a chain is given by its changes, count along the chain named.

T1: Cyno 4-1BB-Flag, on HEK293-6e cells (Cynomolgus (Macaca fascicularis))
T1 construct: also called Cynomolgus 4-1BB; CL#11070
T1 chain: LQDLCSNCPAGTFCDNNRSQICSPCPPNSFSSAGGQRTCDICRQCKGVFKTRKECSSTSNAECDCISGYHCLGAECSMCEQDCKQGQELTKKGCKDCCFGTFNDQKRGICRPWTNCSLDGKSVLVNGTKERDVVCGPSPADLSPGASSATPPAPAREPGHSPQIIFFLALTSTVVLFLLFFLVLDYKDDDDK

B1: v20036 (antibody, human IgG1, kappa, L234A L235A, V domains shown)
VH: QVQLQESGPGLVQPTQSLSITCTVSGFSLISYGVHWVRQSPGKGLEWLGVIWSGGSTDYNAAFISRLSISKDNSKSQVFFKMNSLQADDTAIYYCARNPLTATVMDYWGQGTSVTVSS
VL: DIVMTQSQKFMSTSVGDRVSVTCKASQNVGTNVAWYQQKPGQSPKALIYSASYRDSGVPDRFTGSGSGTDFTLTISNVQSEDLAEYLCQQYNSYPLTFGAGTKLELKR
notes: Mouse-human chimera; also called 5G8; 5G8 mouse-human parental chimera
B2: v20023 (antibody, human IgG1, kappa, L234A L235A, V domains shown)
VH: EVQLVESGGGLVKPGGSRKLSCAASGFTFSEFGMHWVRQAPDKGLKWVAYISSGGSTIYYADTVKGRFTISRDNAKNTLFLQMTSLRSEDTAMYYCARDWVDYWGQGTTLTVSS
VL: NIVMTQSPKSMSMSVGERVTLSCKASENVGSYVSWYQQKPEKSPKLLIYGASNRYTGVPDRFTGSGSATDFTLTISSVQAEDLADYHCGQSYSYPLTFGAGTKLELKR
notes: Mouse-human chimera; also called 1G1; 1G1 mouse-human parental chimera
B3: v20027 (antibody, human IgG1, kappa, L234A L235A, V domains shown)
VH: QVQLQQPGAELVRPGASVKLSCKASGYTFTSYWINWVKQRPGQGLEWIGNIYPSDNYTNYNQKFKDKATLTVDKSSSTAYMQLSSPTSEDSAVYYCTRGGGIYYENYFDYWGQGTTLTVSS
VL: QIVLTQSPAIMSASPGEKVTMTCSASSSVSYMHWYQQKSGTSPKRWVYDTSKLASGVPARFSGSGSGTSYSLTISSMEAEDVATYYCQQWSSNPPTFGGGTKLEIKR
notes: Mouse-human chimera; also called 3D7
B4: v16675 (bispecific antibody, human IgG1, lambda, L234A L235A)
heavy 1: not shown
heavy 2: EVQLVQSGAEVKKPGESLRISCKGSGYSFSTYWISWVRQMPGKGLEWMGKIYPGDSYTNYSPSFQGQVTISADKSISTAYLQWSSLKASDTAMYYCARGYGIFDYWGQGTLVTVSSASTKGPSVFPLAPSSKSTSGGTAALGCLVKDYFPEPVTVSWNSGALTSGVHTFPAVLQSSGLYSLSSVVTVPSSSLGTQTYICNVNHKPSNTKVDKKVEPKSCDKTHTCPPCPAPELLGGPSVFLFPPKPKDTLMISRTPEVTCVVVDVSHEDPEVKFNWYVDGVEVHNAKTKPREEQYNSTYRVVSVLTVLHQDWLNGKEYKCKVSNKALPAPIEKTISKAKGQPREPQVYVYPPSRDELTKNQVSLTCLVKGFYPSDIAVEWESNGQPENNYKTTPPVLDSDGSFALVSKLTVDKSRWQQGNVFSCSVMHEALHNHYTQKSLSLSPG
light: SYELTQPPSVSVSPGQTASITCSGDNIGDQYAHWYQQKPGQSPVLVIYQDKNRPSGIPERFSGSNSGNTATLTISGTQAMDEADYYCATYTGFGSLAVFGGGTKLTVLGQPKAAPSVTLFPPSSEELQANKATLVCLISDFYPGAVTVAWKADSSPVKAGVETTTPSKQSNNKYAASSYLSLTPEQWKSHRSYSCQVTHEGSTVEKTVAPTECS
B5: v16679 (bispecific antibody, human IgG1, lambda, L234A L235A)
heavy 1: not shown
heavy 2: B4 heavy 2
light: B4 light
B6: v16601 (bispecific antibody)
VH: EVQLVQSGAEVKKPGESLRISCKGSGYSFSTYWISWVRQMPGKGLEWMGKIYPGDSYTNYSPSFQGQVTISADKSISTAYLQWSSLKASDTAMYYCARGYGIFDYWGQGTLVTVSS
VL: SYELTQPPSVSVSPGQTASITCSGDNIGDQYAHWYQQKPGQSPVLVIYQDKNRPSGIPERFSGSNSGNTATLTISGTQAMDEADYYCATYTGFGSLAVFGGGTKLTVL
scFv: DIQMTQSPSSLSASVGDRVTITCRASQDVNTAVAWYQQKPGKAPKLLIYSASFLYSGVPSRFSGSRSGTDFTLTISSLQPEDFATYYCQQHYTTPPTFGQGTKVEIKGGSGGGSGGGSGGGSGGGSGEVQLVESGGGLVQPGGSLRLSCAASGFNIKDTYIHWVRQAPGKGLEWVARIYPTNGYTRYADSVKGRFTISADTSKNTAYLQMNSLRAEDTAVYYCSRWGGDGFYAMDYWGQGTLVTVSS
B7: v16605 (bispecific antibody)
VH: B6 VH
VL: B6 VL
scFv: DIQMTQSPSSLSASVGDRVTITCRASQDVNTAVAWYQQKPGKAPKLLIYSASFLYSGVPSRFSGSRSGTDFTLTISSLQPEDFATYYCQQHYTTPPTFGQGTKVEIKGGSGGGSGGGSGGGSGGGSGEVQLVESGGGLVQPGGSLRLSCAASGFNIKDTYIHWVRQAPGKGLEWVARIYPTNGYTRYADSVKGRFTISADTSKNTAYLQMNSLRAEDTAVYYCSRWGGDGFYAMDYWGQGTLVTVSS
B8: v28719 (antibody, human IgG1, kappa, L234A L235A, V domains shown)
VH: EVQLVESGGGLIQPGGSLRLSCAASGFSLTTYAISWVRQAPGKGLEWVSIIWPGGGTNYADSVKGRFTISRDNSKNTLYLQMNSLRAEDTAVYYCARGAGTWYFDVWGQGTLVTVSS
VL: DIQMTQSPSSLSASVGDRVTITCSASQGISNYLNWYQQKPGKAPKLLIYYTSSLHSGVPSRFSGSGSGTDYTLTISSLQPEDIATYYCQQYSKFPWTFGQGTKLEIKR
notes: also called humanized 1C8 H5L2
B9: v28722 (antibody, human IgG1, kappa, L234A L235A, V domains shown)
VH: B8 VH with A24V, V48L, S49G
VL: B8 VL
notes: also called humanized 1C8 H6L2
B10: v28721 (antibody, human IgG1, kappa, L234A L235A, V domains shown)
VH: B8 VH with A24V, V48L, S49G
VL: B8 VL with Y71F, L73F, L104V
notes: also called humanized 1C8 H6L1
B11: v28720 (antibody, human IgG1, kappa, L234A L235A, V domains shown)
VH: B8 VH
VL: B8 VL with A43T, P44V
notes: also called humanized 1C8 H5L3
B12: v28723 (antibody, human IgG1, kappa, L234A L235A, V domains shown)
VH: B8 VH with A24V, V48L, S49G
VL: B8 VL with A43T, P44V
notes: also called humanized 1C8 H6L3
B13: v28724 (antibody, human IgG1, kappa, L234A L235A, V domains shown)
VH: B8 VH with A24V, V48L, S49G, R71K
VL: B8 VL with Y71F, L73F, L104V
notes: also called humanized 1C8 H7L1
B14: v28695 (antibody, human IgG1, kappa, L234A L235A, V domains shown)
VH: QVQLQESGPGLVKPSETLSLTCTVSGFSLISYGVHWIRQPPGKGLEWIGVIWSGGSTDYNPSLKSRVTISVDTSKNQFSLKLSSVTAADTAVYYCARNPLTATVMDYWGQGTLVTVSS
VL: DIQMTQSPSSLSASVGDRVTITCRASQNVGTNVAWFQQKPGKAPKSLIYSASYRDSGVPSRFSGSGSGTDFTLTISSLQPEDFATYYCQQYNSYPLTFGGGTKVEIKR
notes: also called humanized 5G8 H1L1
B15: v20031 (antibody, human IgG1, kappa, L234A L235A, V domains shown)
VH: QVQLQQSGPELVKPGASVKISCKASGYVFSSYWMNWVKQRPGKGLEWIGRIYPGNGDTNYNGKFKDKATLTADKFSSTAYMQLSNLTSEDSAVYFCASYYELDYWGQGTSVTVSS
VL: DVVMTQTPLSLPVSLGDQASISCRSSQSLVHSNGNTYLHWYLQKPGQSPKLLIYKVSNRFFGVPDRFSGSGSGTDFTLKISRVEAEDLGVYFCSQTTYVPLTFGAGTKLELKR
notes: Mouse-human chimera; also called 4B11; printed as 4B1
B16: v12592 (antibody, human IgG1, lambda)
heavy 1: EVQLVQSGAEVKKPGESLRISCKGSGYSFSTYWISWVRQMPGKGLEWMGKIYPGDSYTNYSPSFQGQVTISADKSISTAYLQWSSLKASDTAMYYCARGYGIFDYWGQGTLVTVSSASTKGPSVFPLAPCSRSTSESTAALGCLVKDYFPEPVTVSWNSGALTSGVHTFPAVLQSSGLYSLSSVVTVPSSNFGTQTYTCNVDHKPSNTKVDKTVEPKSCDKTHTCPPCPAPELLGGPSVFLFPPKPKDTLMISRTPEVTCVVVDVSHEDPEVKFNWYVDGVEVHNAKTKPREEQYNSTYRVVSVLTVLHQDWLNGKEYKCKVSNKALPAPIEKTISKAKGQPREPQVYVYPPSRDELTKNQVSLTCLVKGFYPSDIAVEWESNGQPENNYKTTPPVLDSDGSFALVSKLTVDKSRWQQGNVFSCSVMHEALHNHYTQKSLSLSPGK
heavy 2: not shown
light: B4 light with V135Y, L182I
notes: Control monospecific bivalent anti-4-1BB antibody, Het Fc; clones 2871, 4667, 2872; also called MOR7480.1-IG1; MOR7480.1
B17: v20020 (antibody, V domains shown)
VH: QVQLQQPGAELVKPGASVKLSCKASGYTFTSFWINWVKQRPGQGLEWIGNIYPDSSSTNYNEKFKNKATLTVDTSSSTAYMQLSSLTSDDSAVYFCARSLTFDYWGQGTTLTVSS
VL: DVVMTQTPLSLPVSLGDQASISCRSSQSIVHSNGNTYLEWYLQKPGQSPKLLIYKVSNRFSGVPDRFSARGSGTDFSLKISRVEAEDLGVYYCFQGSHVPYTFGGGTKLEIK
notes: Mouse-human chimera: mouse VH on human CH1-hinge-CH2-CH3 (IgG1), mouse VL on human kappa CL; also called 1B2

Each binder was assayed against T2, purified human monomeric 4-1BB (human, UniProt Q07011 24-186) (assay: SPR, mean n=3;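 note: antibodies captured on anti-human Fc chip, 4-1BB injected as five-point two-fold series from 40 nM by single-cycle kinetics at 25 °C, sensorgrams fitted to 1:1 Langmuir model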).
T2 construct: the assay used the 4-1BB part released by Factor Xa with the Fc removed; also called h4-1BB; human 4-1BB
T2 sequence (Q07011 other isoform, or with tags, fused parts or gaps limits assumed): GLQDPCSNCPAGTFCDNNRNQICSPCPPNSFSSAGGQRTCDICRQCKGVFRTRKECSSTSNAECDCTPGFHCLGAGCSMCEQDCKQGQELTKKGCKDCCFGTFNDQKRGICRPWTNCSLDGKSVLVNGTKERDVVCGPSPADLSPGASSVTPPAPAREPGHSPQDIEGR

Kd [nM]	Binder
266	B1
49.6	B2

Each binder was assayed against T3, 4-1BB human (human 4-1BB ECD-TEV-IgG1 hinge-CH2-CH3-10x His) (human) (assay: ELISA, coated 4-1BB-Fc).
T3 construct: 4-1BB residues 24-186 fused to TEV site, IgG1 Fc and His tag; the entry is the whole fusion; also called soluble human 4-1BB-Fc
T3 sequence (chain, as listed by the source limits assumed): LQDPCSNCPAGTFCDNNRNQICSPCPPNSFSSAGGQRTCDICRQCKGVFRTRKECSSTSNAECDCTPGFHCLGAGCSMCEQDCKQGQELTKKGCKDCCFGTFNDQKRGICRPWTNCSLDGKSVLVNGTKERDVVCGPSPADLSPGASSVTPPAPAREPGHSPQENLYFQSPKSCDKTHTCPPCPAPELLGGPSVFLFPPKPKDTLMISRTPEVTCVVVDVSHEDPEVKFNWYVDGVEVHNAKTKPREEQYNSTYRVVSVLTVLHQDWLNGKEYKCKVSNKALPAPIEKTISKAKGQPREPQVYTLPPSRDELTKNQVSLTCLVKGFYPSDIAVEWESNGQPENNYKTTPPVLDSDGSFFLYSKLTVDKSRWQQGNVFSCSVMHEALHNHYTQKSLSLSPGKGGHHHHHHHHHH

binding result	Binder
binds	B1
binds	B2
no binding	B3

What follows are binders tested against T4, 4-1BB dog-human (human-dog chimeric 4-1BB ECD-TEV-IgG1 Fc-10x His) (human with dog residues in domain 4) (assay: ELISA, coated 4-1BB-Fc).
T4 construct: Human 4-1BB ECD with K115Q, C121R, R134Q, R154S and V156A (already in the entry); also called dog-human chimeric 4-1BB; hybrid 4-1BB
T4 sequence (chain, as listed by the source mutant limits assumed): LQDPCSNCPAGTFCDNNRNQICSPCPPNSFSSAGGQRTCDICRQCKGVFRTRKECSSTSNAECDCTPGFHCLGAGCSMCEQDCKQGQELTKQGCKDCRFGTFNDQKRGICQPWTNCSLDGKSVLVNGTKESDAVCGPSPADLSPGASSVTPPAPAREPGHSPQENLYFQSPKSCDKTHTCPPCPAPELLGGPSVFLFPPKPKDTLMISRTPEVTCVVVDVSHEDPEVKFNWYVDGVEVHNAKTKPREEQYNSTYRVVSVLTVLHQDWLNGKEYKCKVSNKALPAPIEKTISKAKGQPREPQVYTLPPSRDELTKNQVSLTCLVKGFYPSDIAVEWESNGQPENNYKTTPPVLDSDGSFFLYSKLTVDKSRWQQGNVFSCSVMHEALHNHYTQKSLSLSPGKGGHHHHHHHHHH

binding result	Binder
binds	B1

These binders were tested against T5, 4-1BB dog (dog 4-1BB ECD-TEV-IgG1 Fc-10x His) (dog) (assay: ELISA, coated 4-1BB-Fc).
T5 construct: Uniprot E2R1R9 residues 24-186 fused to TEV site, IgG1 Fc and His tag
T5 sequence (chain, as listed by the source limits assumed): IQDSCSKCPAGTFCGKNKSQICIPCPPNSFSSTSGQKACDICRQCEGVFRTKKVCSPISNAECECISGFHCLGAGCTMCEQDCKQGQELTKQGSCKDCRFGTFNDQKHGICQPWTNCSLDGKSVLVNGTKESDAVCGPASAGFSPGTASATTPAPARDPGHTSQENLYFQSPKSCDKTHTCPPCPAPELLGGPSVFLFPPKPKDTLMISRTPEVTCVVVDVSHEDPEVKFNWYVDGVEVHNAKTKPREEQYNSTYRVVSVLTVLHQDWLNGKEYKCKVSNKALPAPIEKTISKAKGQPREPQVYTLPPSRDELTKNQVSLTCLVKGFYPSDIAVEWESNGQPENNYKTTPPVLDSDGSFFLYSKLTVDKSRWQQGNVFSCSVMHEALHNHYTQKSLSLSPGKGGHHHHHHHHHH

binding result	Binder
no binding	B1
binds	B2

What follows are binders tested against T6, human 4-1BB, full-length, expressed on cells (human, UniProt Q07011 24-255) (assay: cell-based or functional assay).
T6 sequence (Q07011 24-255): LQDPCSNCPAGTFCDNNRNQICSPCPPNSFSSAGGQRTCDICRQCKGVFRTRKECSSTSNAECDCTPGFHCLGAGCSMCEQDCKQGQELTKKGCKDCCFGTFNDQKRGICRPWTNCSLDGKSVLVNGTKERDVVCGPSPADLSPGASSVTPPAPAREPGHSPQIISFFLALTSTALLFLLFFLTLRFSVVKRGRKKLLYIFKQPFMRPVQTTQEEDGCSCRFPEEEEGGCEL

EC50 (pM), 4-1BB NF-kB-luciferase Jurkat reporter in co-culture with SKOV3 [pM]	Max activity (RLU), 4-1BB NF-kB-luciferase Jurkat reporter [RLU]	Binder
56.9	80900	B4
30.1	131000	B5
2620	27900	B6
401	92000	B7

What follows are binders tested against T6, human 4-1BB, full-length, expressed on … (assay: flow cytometry, Jurkat-4-1BB).

EC50 [nM]	Binder
16.9	B1
0.337	B2

The binders below were run against T7, truncated human 4-1BB domain 3 and 4 only construct (residues 86-255), on cells (human, UniProt Q07011 86-255) (assay: flow cytometry, transfected 293E6 cells).
T7 construct: on 293E6 cells co-transfected with mouse 4-1BB; also called 4-1BB domain 3 and 4 only construct (amino acids 86-255)
T7 sequence (Q07011 86-255): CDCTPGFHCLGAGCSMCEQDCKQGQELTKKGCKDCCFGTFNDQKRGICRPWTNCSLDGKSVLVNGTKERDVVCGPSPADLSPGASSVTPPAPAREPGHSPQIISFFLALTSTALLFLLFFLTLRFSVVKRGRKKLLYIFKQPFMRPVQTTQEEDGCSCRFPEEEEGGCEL

binding result	Binder
no binding (tested: 2.5 µg of antibody)	B1
no binding (tested: 2.5 µg of antibody)	B2

These binders were tested against T2, purified human monomeric 4-1BB (assay: SPR, Ab captured, monomeric 4-1BB injected).

binding result	Binder
no binding	B8
no binding	B9
no binding	B10
no binding	B11
no binding	B12
no binding	B13
no binding	B14

Target: T1, Cyno 4-1BB-Flag, on HEK293-6e cells
Experiment: CellInsight cell binding, transfected HEK293-6e

binding result	Binder
binds	B2
no binding	B15
binds	B16
no binding	B17

These binders were tested against T8, Mouse 4-1BB-Flag, on HEK293-6e cells (Mouse (Mus musculus), UniProt P20334 24-208) (assay: CellInsight cell binding, transfected HEK293-6e).
T8 construct: also called CL#11063
T8 sequence (P20334 other isoform, or with tags, fused parts or gaps limits assumed): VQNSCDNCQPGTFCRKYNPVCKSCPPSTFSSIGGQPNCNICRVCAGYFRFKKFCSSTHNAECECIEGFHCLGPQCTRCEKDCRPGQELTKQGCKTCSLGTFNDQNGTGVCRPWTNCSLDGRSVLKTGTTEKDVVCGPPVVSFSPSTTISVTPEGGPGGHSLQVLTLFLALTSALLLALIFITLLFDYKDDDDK

binding result	Binder
no binding	B1
no binding	B2
no binding	B15
no binding	B17
